Laboratory results published in patent US20090291081A1.

Tests used:
[1] = target: human IL-1β (human) (UniProt P01584); assay: cell-based or functional assay
[2] = target: human IL-1α (human) (UniProt P01583); assay: cell-based or functional assay
Chain of human IL-1α (human) (P01583 113-271 limits assumed): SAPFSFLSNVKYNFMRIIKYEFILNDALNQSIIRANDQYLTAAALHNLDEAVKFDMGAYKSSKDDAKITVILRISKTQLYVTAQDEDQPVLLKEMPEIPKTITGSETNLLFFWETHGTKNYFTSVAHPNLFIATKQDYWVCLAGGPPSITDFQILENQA

Chain of human IL-1β (human) (P01584 117-269 limits assumed): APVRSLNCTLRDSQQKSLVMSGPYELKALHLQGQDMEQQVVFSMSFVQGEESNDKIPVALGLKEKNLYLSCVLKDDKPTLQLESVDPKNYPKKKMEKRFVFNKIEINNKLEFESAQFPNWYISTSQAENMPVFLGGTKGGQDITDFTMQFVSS

Row | Binder | Estimated EC50, IL-1β neutralization (MRC-5) [1] | Estimated EC50, IL-1α neutralization (MRC-5) [2]
1 | ABT1-207/ABT2-108-538x scFc (Fc fusion, part only; not given: Domain junction linker and Fc, not shown: a dimerising Fc or GST) chain, part: EVQLLESGGGLIQPGGSLRLSCAASGFTFGRYYMSWVRQAPGKGLEWVSSIDYLGTNTYYADSVKGRFTISRDNSKNTLYLQMNSLRAEDTAVYYCAKLTRIRPPNFDYWGQGTLVTVSSEVQLLESGGGLVQPGGSLRLSCAASGFTFADEGMMWVRQAPGKGLEWVSRITYSGKNTYYADSVKGRFTISRDNSKNTLYLQMNSLRAEDTAVYYCAKYTGRILGHHLFDYWGQGTLVTVSSGGGGSGGGGSGGGGS | 1.1 nM | 25 nM
2 | ABT1-98/ABT2-108-538x scFc (Fc fusion, part only; not given: Domain junction linker and Fc, not shown: a dimerising Fc or GST) chain, part: EVQLLESGGGLVQPGGSLRLSCAASGFTFDGYIMSWVRQAPGKGLEWVSTISPLGSVTYYADSVKGRFTISRDNSKNTLYLQMNSLRAEDTAVYYCAKKGPWFDYWGQGTLVTVSSEVQLLESGGGLVQPGGSLRLSCAASGFTFADEGMMWVRQAPGKGLEWVSRITYSGKNTYYADSVKGRFTISRDNSKNTLYLQMNSLRAEDTAVYYCAKYTGRILGHHLFDYWGQGTLVTVSSGGGGSGGGGSGGGGS | 1.3 nM | 30 nM

Second part, the binder after the results:

Row | Estimated EC50, IL-1β neutralization (MRC-5) [1] | Estimated EC50, IL-1α neutralization (MRC-5) [2] | Binder
3 | 0.002 nM | 50 nM | ABT2-108-538x/ABT1-207 scFc (Fc fusion, part only; not given: Domain junction linker and Fc, not shown: a dimerising Fc or GST) chain, part: EVQLLESGGGLVQPGGSLRLSCAASGFTFADEGMMWVRQAPGKGLEWVSRITYSGKNTYYADSVKGRFTISRDNSKNTLYLQMNSLRAEDTAVYYCAKYTGRILGHHLFDYWGQGTLVTVSSEVQLLESGGGLIQPGGSLRLSCAASGFTFGRYYMSWVRQAPGKGLEWVSSIDYLGTNTYYADSVKGRFTISRDNSKNTLYLQMNSLRAEDTAVYYCAKLTRIRPPNFDYWGQGTLVTVSSGGGGSGGGGSGGGGS
4 | < 0.001 nM | 3 nM | ABT2-108-538x/ABT1-98 scFc (Fc fusion, part only; not given: Domain junction linker and Fc, not shown: a dimerising Fc or GST) chain, part: EVQLLESGGGLVQPGGSLRLSCAASGFTFADEGMMWVRQAPGKGLEWVSRITYSGKNTYYADSVKGRFTISRDNSKNTLYLQMNSLRAEDTAVYYCAKYTGRILGHHLFDYWGQGTLVTVSSEVQLLESGGGLVQPGGSLRLSCAASGFTFDGYIMSWVRQAPGKGLEWVSTISPLGSVTYYADSVKGRFTISRDNSKNTLYLQMNSLRAEDTAVYYCAKKGPWFDYWGQGTLVTVSSGGGGSGGGGSGGGGS
